Experimental data as given in US12303551B2, “Cellular immunotherapy compositions and uses thereof” (CERO THERPEUTICS HOLDINGS, INC., priority 2018, dated 2025).

Legend:
SCC152 target cells [1] = assay: Phagocytosis of SCC152 by CD4+ T cell/CER, fluorescence microscopy with hybrid capture; type: cell-based; conditions: TRAF-domain CERs, 4 hours, 1:1:0.5 (CD8:CD4:target cell); versus CD4+ control + CD8+/E7 TCR
Protocol: FIG. 28 is a bar graph representing quantification of CD4+ T cell-CER mediated phagocytosis of SCC152 target cells. Results calculated as ((number of phagocytic target events)/(total number of effectors))*100 from 3×3 40× images, 4 hours after initiation of co-culture assay. CD8+ T cells transduced with HPV16 E7 TCR and CD4+ T cells transduced with selected CERs (CER5, CER17, CER19, CER21, CER23, CER26, CER27, CER103b, CER104, CER105, CER106, or CER116) were co-cultured with SCC152 squamous head and neck carcinoma target cells at a 1:1:0.5 ratio for 4 hours and imaged.
FIG. 29 is a bar graph representing quantification of CD4+ T cell-CER mediated phagocytosis of SCC152 target cells. Results calculated as (median area ratio of target events in effector cells*% phagocytosis) from 3×3 40× images, 4 hours after initiation of co-culture assay. CD8+ T cells transduced with HPV16 E7 TCR and CD4+ T cells transduced with selected CERs (CER5, CER17, CER19, CER21, CER23, CER26, CER27, CER103b, CER104, CER105, CER106, or CER116) were co-cultured with SCC152 squamous head and neck carcinoma target cells at a 1:1:0.5 ratio for 4 hours and imaged.
(§1) FIG. 55 is a bar graph representing quantification of CD4+ T cell-CER mediated phagocytosis of SCC152 target cells. Percent phagocytosis was calculated as ((number of phagocytic target events)/(total number of effector cells))*100. These numbers were calculated from 3×3 images captured by Keyence BZ-X710 fluorescence microscope at 40× resolution, 4 hours after initiation of co-culture assay. CD8+ T cells transduced with HPV16 E7 TCR and CD4+ T cells transduced with a selected CER (CER29, CER30, CER110, CER112, CER113, CER114, CER116, or CER117) were co-cultured with SCC152 target cells at a 1:1:0.5 ratio (CD8:CD4:target cell) for 4 hours and imaged.
as §1, with “56” for “55”, “Adjusted phagocytic index” for “Percent phagocytosis”, “(median area ratio” for “((number”, “of” for “of phagocytic”, “events in” for “events)/(total number of”, “cells*% phagocytosis).” for “cells))*100.”
Phagocytic activity of CD4+ T cell/CER+CD8+ T cell/HPV16 E7 TCR combinations co-cultured with SCC152 cells was visualized and quantified using KEYENCE BZ-X710 fluorescence microscope, […] and hybrid capture software.

SCC152 target cells [2] = assay: Lactate dehydrogenase (LDH) cytotoxicity assay in SCC152 co-culture; type: cell-based; conditions: CD4+/CER + CD8+/HPV16 E7 TCR 1:1; 4 hours co-culture, varying target:effector ratios
Protocol: FIG. 19 is a bar graph showing a lactate dehydrogenase (LDH) cytotoxicity assay performed 4 hours after co-culture of CD8+ T cells transduced with a HPV16 E7 TCR and CD4+ T cells transduced with CER104 at a 1:1 ratio with SCC152 target cells at varying target cell:effector cell ratios (0.5:1, 1:1, 1:2.5, 1:5, 1:10, 1:20).
LDH is a cytosolic enzyme that is released by a cell into cell culture media when the plasma membrane is damaged. Thus, LDH's presence in culture medium is a marker for cell death. LDH assays are capable of detecting low level damage to cell membrane which cannot be detected using other methods. LDH may be detected using colorimetric or fluorometric methods.

[3] = test system: SCC152 HPV+ Head & Neck Squamous Carcinoma; assay: SCC152 xenograft in NSG mice, tumor caliper measurements; type: in vivo; conditions: 3×10^6 CER CD4+ T cells added to 1×10^6 E7 TCR CD8+ T cells; versus E7 TCR CD8+ T cells alone
Description: 1×10^^6 CD8^+ T cells engineered with a HPV E7 specific TCR were infused with or without 3×10^6 CD4+ T cells engineered with CER104. Data represents mean value of tumor caliper measurements (n=5 mice per group).
Cellular immunotherapy composition combination comprising HPV E7 specific TCR modified CD8+ T cells (1×10^6) (as described in Example 1) and hCER104 modified CD4+ T cells (3×10^6) were infused into head neck squamous cell cancer mouse model generated by injecting HPV+ SCC152 cells into NSG mice and compared with SCC152 xenograft mice treated with HPV E7 specific TCR modified CD8+ T cells alone (n=5 mice/treatment group).

B1: CER116: Chimeric engulfment receptor: Tim4 binding, Tim4 transmembrane, TRAF6 and TLR8 signaling; SEQ ID NO: 152 (protein)
chain: MSKGLLLLWLVTELWWLYLTPAASEDTIIGFLGQPVTLPCHYLSWSQSRNSMCWGKGSCPNSKCNAELLRTDGTRIISRKSTKYTLLGKVQFGEVSLTISNTNRGDSGVYCCRIEVPGWFNDVKKNVRLELRRATTTKKPTTTTRPTTTPYVTTTTPELLPTTVMTTSVLPTTTPPQTLATTAFSTAVTTCPSTTPGSFSQETTKGSAFTTESETLPASNHSQRSMMTISTDIAVLRPTGSNPGILPSTSQLTTQKTTLTTSESLQKTTKSHQINSRQTILIIACCVGFVLMVLLFLAFLMSLLNCENSCGSSQSESDCCVAMASSCSAVTKDDSVGGTASTGNLSSSFMEEIQGYDVEFDPPLESKYECPICLMALREAVQTPCGHRFCKACIIKSIRDAGHKCPVDNEILLENQLFPDNFAKREILSLMVKCPNEGCLHKMELRHLEDHQAHCEFALMDCPQCQRPFQKFHINIHILKDCPRRQVSCDNCAASMAFEDKEIHDQNCPLANVICEYCNTILIREQMPNHYDLDCPTAPIPCTFSTFGCHEKMQRNHLARHLQENTQSHMRMLAHHLFYWDVWFIYNVCLAKVKGYRSLSTSQTFYDAYISYDTKDASVTDWVINELRYHLEESRDKNVLLCLEERDWDPGLAIIDNLMQSINQSKKTVFVLTKKYAKSWNFKTAFYLALQRLMDENMDVIIFILLEPVLQHSQYLRLRQRICKSSILQWPDNPKAEGLFWQTLRNVVLTENDSRYNNMYVDSIKQY
modifications: CER116, amino acids 1-22 are signal peptide
In the case of B1, the “engulfment of SCC152 target cells (percent phagocytosis, adjusted phagocytic index)” value (SCC152 target cells [1]) is reported as “enhanced engulfment”.

B2: CER117: Chimeric engulfment receptor: Tim4 binding, Tim4 transmembrane, TLR8 and TRAF6 signaling; SEQ ID NO: 153 (protein)
chain: MSKGLLLLWLVTELWWLYLTPAASEDTIIGFLGQPVTLPCHYLSWSQSRNSMCWGKGSCPNSKCNAELLRTDGTRIISRKSTKYTLLGKVQFGEVSLTISNTNRGDSGVYCCRIEVPGWFNDVKKNVRLELRRATTTKKPTTTTRPTTTPYVTTTTPELLPTTVMTTSVLPTTTPPQTLATTAFSTAVTTCPSTTPGSFSQETTKGSAFTTESETLPASNHSQRSMMTISTDIAVLRPTGSNPGILPSTSQLTTQKTTLTTSESLQKTTKSHQINSRQTILIIACCVGFVLMVLLFLAFLHHLFYWDVWFIYNVCLAKVKGYRSLSTSQTFYDAYISYDTKDASVTDWVINELRYHLEESRDKNVLLCLEERDWDPGLAIIDNLMQSINQSKKTVFVLTKKYAKSWNFKTAFYLALQRLMDENMDVIIFILLEPVLQHSQYLRLRQRICKSSILQWPDNPKAEGLFWQTLRNVVLTENDSRYNNMYVDSIKQYMSLLNCENSCGSSQSESDCCVAMASSCSAVTKDDSVGGTASTGNLSSSFMEEIQGYDVEFDPPLESKYECPICLMALREAVQTPCGHRFCKACIIKSIRDAGHKCPVDNEILLENQLFPDNFAKREILSLMVKCPNEGCLHKMELRHLEDHQAHCEFALMDCPQCQRPFQKFHINIHILKDCPRRQVSCDNCAASMAFEDKEIHDQNCPLANVICEYCNTILIREQMPNHYDLDCPTAPIPCTFSTFGCHEKMQRNHLARHLQENTQSHMRMLA
modifications: CER117, amino acids 1-22 are signal peptide
With B2 the “engulfment of SCC152 target cells (percent phagocytosis, adjusted phagocytic index)” value (SCC152 target cells [1]) was “enhanced engulfment”.

B3: CER104: Chimeric engulfment receptor: Tim4 binding, Tim4 transmembrane, TLR8 and DAP12 signaling; SEQ ID NO: 139 (protein)
chain: MSKGLLLLWLVTELWWLYLTPAASEDTIIGFLGQPVTLPCHYLSWSQSRNSMCWGKGSCPNSKCNAELLRTDGTRIISRKSTKYTLLGKVQFGEVSLTISNTNRGDSGVYCCRIEVPGWFNDVKKNVRLELRRATTTKKPTTTTRPTTTPYVTTTTPELLPTTVMTTSVLPTTTPPQTLATTAFSTAVTTCPSTTPGSFSQETTKGSAFTTESETLPASNHSQRSMMTISTDIAVLRPTGSNPGILPSTSQLTTQKTTLTTSESLQKTTKSHQINSRQTILIIACCVGFVLMVLLFLAFLHHLFYWDVWFIYNVCLAKVKGYRSLSTSQTFYDAYISYDTKDASVTDWVINELRYHLEESRDKNVLLCLEERDWDPGLAIIDNLMQSINQSKKTVFVLTKKYAKSWNFKTAFYLALQRLMDENMDVIIFILLEPVLQHSQYLRLRQRICKSSILQWPDNPKAEGLFWQTLRNVVLTENDSRYNNMYVDSIKQYYFLGRLVPRGRGAAEAATRKQRITETESPYQELQGQRSDVYSDLNTQRPYYK
modifications: CER104, amino acids 1-22 are signal peptide
B3 was tested, and the “cytolytic activity (LDH release)” value (SCC152 target cells [2]) was “enhanced cytolytic activity” and the “tumor killing (tumor volume by caliper)” value [3] was “enhanced tumor killing in vivo”.
